Test results: the supplement of paper PMC7877785
± gives the uncertainty stated by the source.

Experiment: self-splicing fitness, log relative to wild type (ln ratio); higher = more splicing; Tetrahymena group I intron in knt gene, E. coli kanamycin selection, DiMSum; sequences stand for … in CUCUCU…GGAGGGAAAAGUUAUCAGGCAUGCACCUGGUAGCUAGUCUUUAAACCAAUAGAUUGCAUCGGUUUAAAAGGCAAGACCGUCAAAUUGCGGGAAAGGGGUCAACAGCCGUUCAGUACCAAGUCUCAGGGGAAACUUUGAGAUGGCCUUGCAAAGGGUAUGGUAAUAAGCUGACGGACAUGGUCCUAACCACGCAGCCAAGUCCUAAGUCAACAGAUCUUCUGUUGAUAUGGAUGCAGUUCACAGACUAAAUGUCGGUCGGGGAAGAUGUAUUCUUCUCAUAAGAUAUAGUCGGACCUCUCCUUAAUGGGAGCUAGCGGAUGAAGUGAUGCAACACUGGAGCCGCUGGGAACUAAUUUGUAUGCGAAAGUAUAUUGAUUAGUUUUGGAGUACUCGUGGUCG
How it was run: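 Colonies from six replicate transformations of E. coli BL21(DE3) were pooled and amplicon-sequenced on an Illumina HiSeq 2500. The library placed an intron with all eight P1ex-region nucleotides randomised inside the knt kanamycin-resistance gene on pET-22b(+), and cells grew overnight at 37°C or 30°C on LB agar with or without 25 μg/mL kanamycin (plus 100 μg/mL carbenicillin, 50 μM IPTG, 0.2% rhamnose). Fitness is the DiMSum error-weighted combination of wild-type-normalised replicate fold changes, kanamycin versus none.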

Sequence | self-splicing fitness (ln) (30 °C) | self-splicing fitness (ln) (37 °C)
AUAUAGCAAUAUUACGAAUA | -1.36 ± 0.32 | –
UCCGAGCAAUAUUACGUCCG | -2.24 ± 0.24 | –
GACCAGCAAUAUUACGUACG | -1.34 ± 0.074 | -0.696 ± 0.088
UACGAGCAAUAUUACGGGAG | -3.43 ± 0.22 | -2.72 ± 0.39
GCCAAGCAAUAUUACGUCUG | -3.62 ± 0.19 | -2.02 ± 0.16
GAUGAGCAAUAUUACGUGCC | -2.92 ± 0.23 | -2.3 ± 0.42
UCAAAGCAAUAUUACGGUGA | -0.776 ± 0.098 | -0.408 ± 0.11
ACAUAGCAAUAUUACGUCGC | -4.47 ± 0.38 | -1.69 ± 0.24
GAUAAGCAAUAUUACGGAAC | -3.85 ± 0.42 | -1.6 ± 0.18
UUGCAGCAAUAUUACGUAGC | -2.96 ± 0.3 | –
UUACAGCAAUAUUACGCCAG | -1.74 ± 0.15 | -1.05 ± 0.21
UUUUAGCAAUAUUACGCGGA | -2 ± 0.17 | -1.44 ± 0.17
CAAGAGCAAUAUUACGUGGG | -3.54 ± 0.21 | -2.64 ± 0.19
CAUCAGCAAUAUUACGUUGG | -1.58 ± 0.059 | -0.639 ± 0.067
CUUGAGCAAUAUUACGAGCC | -1.39 ± 0.33 | –
GCAUAGCAAUAUUACGGCCU | -1.44 ± 0.11 | -0.683 ± 0.11
UGCUAGCAAUAUUACGUAGA | -2.3 ± 0.18 | -0.929 ± 0.17
CAGAAGCAAUAUUACGGUGC | -4.16 ± 0.24 | -3.04 ± 0.18
CACCAGCAAUAUUACGGAUG | -3.11 ± 0.12 | -1.84 ± 0.12
GCACAGCAAUAUUACGACCA | -0.551 ± 0.11 | -0.554 ± 0.14
CGGGAGCAAUAUUACGAGUG | -3.61 ± 0.24 | -1.61 ± 0.2
AAUGAGCAAUAUUACGUCCA | -2.41 ± 0.19 | -2.27 ± 0.3
AGUGAGCAAUAUUACGUGGG | -3.7 ± 0.29 | -2.51 ± 0.23
CGAUAGCAAUAUUACGCCUU | -2.23 ± 0.17 | -2.24 ± 0.17
GCUAAGCAAUAUUACGAGGU | -2.03 ± 0.19 | -1.51 ± 0.15
AUUAAGCAAUAUUACGGCCU | -0.548 ± 0.1 | -0.318 ± 0.12

Sequence | self-splicing fitness (ln) (30 °C) | self-splicing fitness (ln) (37 °C)
UACUAGCAAUAUUACGAUCU | -1.31 ± 0.13 | -0.847 ± 0.14
CGGCAGCAAUAUUACGGCAU | -0.976 ± 0.088 | -0.0577 ± 0.1
CAAGAGCAAUAUUACGUUAU | -4.08 ± 0.19 | -2.78 ± 0.17
CGAAAGCAAUAUUACGUAGU | -3.2 ± 0.098 | -2.77 ± 0.13
UCGCAGCAAUAUUACGAACU | -3.13 ± 0.19 | -1.69 ± 0.17
GGGUAGCAAUAUUACGUCAU | -0.733 ± 0.07 | -0.742 ± 0.081
CGACAGCAAUAUUACGUUCU | -0.971 ± 0.05 | -0.0323 ± 0.07
CCGUAGCAAUAUUACGCUAG | -3.02 ± 0.28 | -2.14 ± 0.25
AGCCAGCAAUAUUACGAAAG | -3.13 ± 0.22 | -3.22 ± 0.38
CGUGAGCAAUAUUACGUAGA | -3.22 ± 0.2 | -2.89 ± 0.22
CUUUAGCAAUAUUACGUGCU | – | -2.59 ± 0.41
ACAAAGCAAUAUUACGCAGA | -2.12 ± 0.14 | -1.06 ± 0.093
CCGUAGCAAUAUUACGACGA | -0.268 ± 0.11 | -0.689 ± 0.1
UGGUAGCAAUAUUACGUUGU | -4.52 ± 0.36 | -2.86 ± 0.26
UAAUAGCAAUAUUACGACUU | -0.84 ± 0.1 | -0.376 ± 0.094
AGGUAGCAAUAUUACGGUCU | -0.498 ± 0.013 | -0.107 ± 0.033
CGGUAGCAAUAUUACGCUAC | -2.96 ± 0.47 | -2.93 ± 0.43
GGUAAGCAAUAUUACGAUUA | -0.734 ± 0.094 | -0.221 ± 0.11
CCUCAGCAAUAUUACGCCUA | -2.6 ± 0.21 | -1.6 ± 0.2
GGUUAGCAAUAUUACGGUCU | -0.263 ± 0.12 | 0.162 ± 0.15
ACUGAGCAAUAUUACGGCCA | -2.43 ± 0.28 | -2.07 ± 0.33
ACGGAGCAAUAUUACGUUAA | -2.65 ± 0.23 | -3.13 ± 0.47
CUGGAGCAAUAUUACGAUCG | -1.7 ± 0.14 | 0.264 ± 0.21
ACACAGCAAUAUUACGGCCA | -1.18 ± 0.12 | -1.17 ± 0.11
UCUUAGCAAUAUUACGGUUA | – | -2.37 ± 0.39
GUGGAGCAAUAUUACGACAU | -2.402 ± 0.022 | -1.48 ± 0.038

Sequence | self-splicing fitness (ln) (30 °C) | self-splicing fitness (ln) (37 °C)
AAAAAGCAAUAUUACGUCAA | -1.8 ± 0.08 | -0.836 ± 0.073
GGAGAGCAAUAUUACGUUCG | -1.27 ± 0.19 | -0.35 ± 0.23
CAAGAGCAAUAUUACGUAUC | -3.78 ± 0.17 | -2.67 ± 0.2
CGGGAGCAAUAUUACGCCCA | -2.28 ± 0.25 | -1.24 ± 0.28
CUAAAGCAAUAUUACGCUAG | -3.41 ± 0.24 | -1.84 ± 0.13
UCCGAGCAAUAUUACGCUUG | -3.49 ± 0.28 | -2.09 ± 0.25
AGACAGCAAUAUUACGAGGC | -3.34 ± 0.23 | -2.82 ± 0.3
GCAGAGCAAUAUUACGUUUC | -4.1 ± 0.39 | -2.27 ± 0.44
GAACAGCAAUAUUACGUAGC | -0.75 ± 0.074 | -0.22 ± 0.1
GCAGAGCAAUAUUACGGUGC | -2.67 ± 0.19 | -1.9 ± 0.24
CACCAGCAAUAUUACGUCAC | -2.9 ± 0.15 | -2.9 ± 0.3
AAAGAGCAAUAUUACGAUUC | -2.3 ± 0.14 | -1.61 ± 0.14
GGAAAGCAAUAUUACGCUAG | -2.03 ± 0.22 | -0.857 ± 0.29
CCAAAGCAAUAUUACGAUAU | -4.16 ± 0.15 | -2.79 ± 0.13
UUGCAGCAAUAUUACGGCGU | -0.34 ± 0.051 | 0.352 ± 0.065
UUACAGCAAUAUUACGCUCC | -1.45 ± 0.24 | -1.3 ± 0.24
GAACAGCAAUAUUACGCUUA | -1.2 ± 0.084 | -0.826 ± 0.099
CAGGAGCAAUAUUACGUCUA | -1.43 ± 0.13 | -1.68 ± 0.14
AACCAGCAAUAUUACGGGCU | -2.19 ± 0.093 | -1.71 ± 0.1
UUAUAGCAAUAUUACGCGUG | -0.968 ± 0.11 | -0.618 ± 0.13
GAUAAGCAAUAUUACGAAUU | -3.63 ± 0.26 | -2.76 ± 0.25
AAGUAGCAAUAUUACGUUAG | -3.51 ± 0.23 | -3 ± 0.34
GGAUAGCAAUAUUACGUUAG | – | -2 ± 0.23
UAACAGCAAUAUUACGUCCU | -0.956 ± 0.085 | -0.192 ± 0.1
AGUCAGCAAUAUUACGCUCG | -0.828 ± 0.075 | -0.495 ± 0.098
